Laboratory results taken from paper PMC9930174 (2022).

Columns and labels:
[1] = molecular target: T1, α-myosin (MYH6) peptide on H-2Kb (mouse); assay: activation reporter or marker
T1 peptide: VQQVYYSI

[2] = molecular target: T2, α-myosin (MYH6) peptide on H-2Kb (mouse); assay: activation reporter or marker
T2 peptide: VIQYFASI

[3] = molecular target: T3, α-myosin (MYH6) peptide on HLA-A*03:01 (human); assay: multimer staining
T3 peptide: RINATLETK

[4] = molecular target: T4, α-myosin (MYH6) peptide on HLA-A*24:02 (human); assay: multimer staining
T4 peptide: RINATLETK

B1: TCR-C (TCR)
alpha TRAV6D-6 TRAJ39 CDR3: CALGDRNNAGAKLTF
beta TRBV12-2 TRBJ2-5 CDR3: CASSLGGTVQDTQYF
Does B1 bind [1]?
Result: recognises

B2: TCR-B (TCR)
alpha TRAV13-1 TRAJ22 CDR3: CALERASGSWQLIF
beta TRBV15 TRBJ2-7 CDR3: CASSLRRGEQYF
Does B2 bind [2]?
Result: recognises

B3: TCR-Pt1 (TCR)
alpha TRAV19 TRAJ32 CDR3: CALSDRYGGATNKLIF
beta TRBV9 TRBJ2-6 CDR3: CASSPYQSSGANVLTF
What does the source list for B3?
binding result [3]: recognises; binding result [4]: no recognition
